The numbers were not newly measured in article PMC5874815, which cites them from elsewhere.

This data set deals with EGFR (Homo sapiens) (UniProt P00533).

In general, Kd refers to a measure of binding affinity in units of concentration. Take EGF (from UniProt P01133): the Kd was 2 nM.
